The values below come from article PMC2836553.

Holding throughout (assay): FRET
Data set [1] addresses T1, XPF-Δnuc (HhH2 domain) (Sulfolobus solfataricus P2, UniProt Q7LXL5 =M+148-233, internal_change).
T1 sequence: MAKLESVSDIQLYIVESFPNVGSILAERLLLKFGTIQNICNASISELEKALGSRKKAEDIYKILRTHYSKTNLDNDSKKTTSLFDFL

The target of data set [2] is T2, XPF-wt (Saccharolobus (Sulfolobus) solfataricus, UniProt Q7LXL5 1-233).
T2 sequence: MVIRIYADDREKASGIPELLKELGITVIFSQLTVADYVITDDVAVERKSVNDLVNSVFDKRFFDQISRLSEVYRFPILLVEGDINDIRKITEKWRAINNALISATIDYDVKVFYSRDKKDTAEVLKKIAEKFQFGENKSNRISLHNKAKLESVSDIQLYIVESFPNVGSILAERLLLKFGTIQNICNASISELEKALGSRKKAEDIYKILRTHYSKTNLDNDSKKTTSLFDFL

In data set [3] the target is T3, XPF-ΔPIP (Δ6 XPF) (Sulfolobus solfataricus, UniProt Q7LXL5 1-227).
T3 sequence: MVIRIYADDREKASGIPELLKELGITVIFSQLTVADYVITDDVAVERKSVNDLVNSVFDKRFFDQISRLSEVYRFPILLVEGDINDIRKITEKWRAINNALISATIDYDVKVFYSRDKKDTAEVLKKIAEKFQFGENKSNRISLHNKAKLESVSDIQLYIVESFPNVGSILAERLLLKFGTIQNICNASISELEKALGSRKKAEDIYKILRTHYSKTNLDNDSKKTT

The target in data set [4] is T4, XPF-Δnuc (HhH2 domain);PCNA heterotrimer (Sulfolobus solfataricus P2;Sulfolobus …, UniProt Q7LXL5;P57766;Q97Z84;P57765 =M+148-233;1-249;1-245;1-244, internal_change|).
T4 sequence 1: T1 sequence
T4 sequence 2: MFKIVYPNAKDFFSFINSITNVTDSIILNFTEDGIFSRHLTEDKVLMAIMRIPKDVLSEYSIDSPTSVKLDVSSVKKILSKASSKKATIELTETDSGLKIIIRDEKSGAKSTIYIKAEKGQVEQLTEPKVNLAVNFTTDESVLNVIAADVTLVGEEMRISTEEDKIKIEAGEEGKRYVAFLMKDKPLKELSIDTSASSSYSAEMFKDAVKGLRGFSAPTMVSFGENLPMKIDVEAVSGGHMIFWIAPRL
T4 sequence 3: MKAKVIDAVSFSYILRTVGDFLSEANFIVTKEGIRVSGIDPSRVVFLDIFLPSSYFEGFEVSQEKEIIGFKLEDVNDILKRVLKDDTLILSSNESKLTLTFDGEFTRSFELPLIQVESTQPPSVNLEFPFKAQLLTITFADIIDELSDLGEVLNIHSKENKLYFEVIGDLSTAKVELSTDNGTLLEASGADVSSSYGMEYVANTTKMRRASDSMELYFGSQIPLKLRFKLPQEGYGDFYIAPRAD
T4 sequence 4: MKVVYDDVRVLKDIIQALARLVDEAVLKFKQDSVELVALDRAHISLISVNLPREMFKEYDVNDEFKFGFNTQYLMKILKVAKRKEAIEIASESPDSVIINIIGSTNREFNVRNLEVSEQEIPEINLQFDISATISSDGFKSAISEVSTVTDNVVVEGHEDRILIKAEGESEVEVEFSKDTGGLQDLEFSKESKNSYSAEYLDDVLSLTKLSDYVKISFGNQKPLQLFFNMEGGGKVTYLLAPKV

Data set [5] deals with T5, XPF-wt;PCNA heterotrimer (Saccharolobus (Sulfolobus) …, UniProt Q7LXL5;P57766;Q97Z84;P57765 1-233;1-249;1-245;1-244, |).
T5 sequence 1: T2 sequence
T5 sequence 2: T4 sequence 2
T5 sequence 3: T4 sequence 3
T5 sequence 4: T4 sequence 4

The target of data set [6] is T1, XPF-Δnuc (HhH2 domain). This is another data set of the same source.
For data set [7], the target named is T2, XPF-wt. The source holds these as a separate data set.
For data set [8], the target named is T5, XPF-wt;PCNA heterotrimer. This is another data set of the same source.
Data set [9] has as its target T3, XPF-ΔPIP (Δ6 XPF). This is another data set of the same source.
Data set [10] concerns the target T3, XPF-ΔPIP (Δ6 XPF). This is another data set of the same source.

Like-named read-outs stand apart in the source and are kept apart here.

B1: 3' flap, three vectors (global fit) (structured_DNA)
DNA 1: AGCCCGACAGCAGTCAGAGCTTGCTAGGACGGACGGT
DNA 2: ACCGTCCGTCCTAGCAAGCATTTTTTT
DNA 3: TCTGACTGCTGTCGGGCT
modifications: dye positions as in Flap-12, Flap-13 and Flap-23
By Kd is commonly meant the equilibrium constant for the complex coming apart. The low end stands for tighter binding, the high end for weaker binding. With B1, the Kd in data set [1] was found to be 8 ± 1 µM; in data set [2], 5.3 ± 0.6 µM; in data set [3], 3.1 ± 0.5 µM; in data set [4] it was 0.11 ± 0.01 µM; in [5], 0.06 ± 0.01 µM.

B2: Flap-13 (structured_DNA)
DNA 1: B1 DNA 1
DNA 2: ACCGTCCGTCCTAGCAAGCATTTTTTT
DNA 3: TCTGACTGCTGTCGGGCT
modifications: amino-C6-dT at T9 of B strand; internal fluorescein-dT at T10 of C strand
Turning to B2, the Kd was 8 ± 2 µM in [6], 9.2 ± 3 µM in data set [7] and 0.06 ± 0.01 µM in [8].

B3: Flap-23 (structured_DNA)
DNA 1: B1 DNA 1
DNA 2: ACCGTCCGTCCTAGCAAGCATTTTTTT
DNA 3: TCTGACTGCTGTCGGGCT
modifications: 3' Cy3 on B strand; internal fluorescein-dT at T10 of C strand
On to B3, for which the Kd in data set [9] came out at 1.6 ± 0.2 µM; in data set [7], 5 ± 0.6 µM; in [8], 0.05 ± 0.01 µM; in data set [10], 1.8 ± 0.3 µM.

B4: Flap-12 (structured_DNA)
DNA 1: B1 DNA 1
DNA 2: ACCGTCCGTCCTAGCAAGCATTTTTTT
DNA 3: TCTGACTGCTGTCGGGCT
modifications: internal fluorescein-dT at T9 of B strand; 3' amino modifier on B strand
For B4, the values for the Kd in [7] and in [10] were 2.6 ± 0.4 µM and 1.6 ± 0.6 µM, respectively.
